Test results: the supplement of paper PMC9112550, “Optimization of the antimicrobial peptide Bac7 by deep mutational scanning” (BMC Biology, 2022)

Test system: Escherichia coli TOP10
Test: shrunken log2 fold change of peptide-encoding DNA abundance (4.5 h post-induction vs induction); higher = less antimicrobial activity (less host growth inhibition)
Conditions: time post-induction: 4.5 h; library: site-saturation at positions 5, 18, 19, 20
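Also: peptides expressed intracellularly from a pBAD plasmid library in pooled LB shake-flask culture, induced with 0.3% L-arabinose, DNA abundance read by NGS, three biological replicates, DESeq2 with apeglm shrinkage.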

| Sequence | shrunken log2 fold change |
| --- | --- |
| RRIRQRPPRLPRPRPRPIPHPRP | 0.021 |
| RRIRSRPPRLPRPRPRPFTAPRP | -0.492 |
| RRIRRRPPRLPRPRPRPHMNPRP | -0.315 |
| RRIRPRPPRLPRPRPRPKYRPRP | 2.73 |
| RRIRQRPPRLPRPRPRPDVAPRP | -0.116 |
| RRIRERPPRLPRPRPRPEKRPRP | -0.0657 |
| RRIRIRPPRLPRPRPRPFCVPRP | -0.713 |
| RRIRFRPPRLPRPRPRPTLFPRP | 0.243 |
| RRIRMRPPRLPRPRPRPNTGPRP | 0.151 |
| RRIRPRPPRLPRPRPRPRDTPRP | -0.0427 |
| RRIRIRPPRLPRPRPRPISYPRP | -0.197 |
| RRIRWRPPRLPRPRPRPLYGPRP | -0.369 |
| RRIRRRPPRLPRPRPRPAGDPRP | 0.563 |
| RRIRQRPPRLPRPRPRPSISPRP | -0.22 |
| RRIRKRPPRLPRPRPRPSVWPRP | 0.645 |
| RRIRHRPPRLPRPRPRPMIPPRP | 0.132 |
| RRIRKRPPRLPRPRPRPIMCPRP | -0.0176 |
| RRIRFRPPRLPRPRPRPEKPPRP | -0.0143 |
| RRIRNRPPRLPRPRPRPYVTPRP | -0.553 |
| RRIRERPPRLPRPRPRPYDCPRP | -0.0948 |
| RRIRNRPPRLPRPRPRPVVTPRP | -0.114 |
| RRIRTRPPRLPRPRPRPITVPRP | -0.154 |
| RRIRNRPPRLPRPRPRPYDHPRP | -0.219 |
| RRIRKRPPRLPRPRPRPMFFPRP | -0.14 |
| RRIRERPPRLPRPRPRPAFHPRP | -0.154 |

| Sequence | shrunken log2 fold change |
| --- | --- |
| RRIRMRPPRLPRPRPRPCIPPRP | -0.159 |
| RRIRTRPPRLPRPRPRPTKMPRP | -0.355 |
| RRIRYRPPRLPRPRPRPLGYPRP | -0.162 |
| RRIRTRPPRLPRPRPRPMMTPRP | 0.0356 |
| RRIRSRPPRLPRPRPRPHLHPRP | -0.177 |
| RRIRHRPPRLPRPRPRPMIDPRP | -0.161 |
| RRIRIRPPRLPRPRPRPYGCPRP | 0.0504 |
| RRIRHRPPRLPRPRPRPAMWPRP | 0.00652 |
| RRIRDRPPRLPRPRPRPFPNPRP | -0.503 |
| RRIRMRPPRLPRPRPRPWCFPRP | -0.144 |
| RRIRVRPPRLPRPRPRPGEFPRP | 0.119 |
| RRIRLRPPRLPRPRPRPYRGPRP | -0.246 |
| RRIRRRPPRLPRPRPRPNEWPRP | 0.0626 |
| RRIRFRPPRLPRPRPRPSLNPRP | -0.642 |
| RRIRHRPPRLPRPRPRPPVQPRP | -0.0798 |
| RRIRDRPPRLPRPRPRPCSSPRP | 0.187 |
| RRIRRRPPRLPRPRPRPMTDPRP | 0.00399 |
| RRIRYRPPRLPRPRPRPIIMPRP | -0.0214 |
| RRIRGRPPRLPRPRPRPHNCPRP | -0.0265 |
| RRIRHRPPRLPRPRPRPHTVPRP | -0.606 |
| RRIRSRPPRLPRPRPRPILMPRP | -0.172 |
| RRIRARPPRLPRPRPRPNGVPRP | -0.00122 |
| RRIRLRPPRLPRPRPRPIIVPRP | -0.0625 |
| RRIRLRPPRLPRPRPRPQDIPRP | 0.133 |
| RRIRDRPPRLPRPRPRPLKDPRP | -0.225 |

| Sequence | shrunken log2 fold change |
| --- | --- |
| RRIRERPPRLPRPRPRPHMPPRP | -0.197 |
| RRIRYRPPRLPRPRPRPVEVPRP | -0.282 |
| RRIRGRPPRLPRPRPRPTNPPRP | 0.367 |
| RRIRYRPPRLPRPRPRPGRMPRP | -0.642 |
| RRIRGRPPRLPRPRPRPMEDPRP | -0.0262 |
| RRIRRRPPRLPRPRPRPMVFPRP | 0.182 |
| RRIRARPPRLPRPRPRPYSMPRP | -0.484 |
| RRIRERPPRLPRPRPRPQQNPRP | -0.122 |
| RRIRFRPPRLPRPRPRPMQFPRP | -0.0783 |
| RRIRMRPPRLPRPRPRPDEAPRP | 2.2 |
| RRIRNRPPRLPRPRPRPRAIPRP | 0.064 |
| RRIRYRPPRLPRPRPRPKLTPRP | -0.173 |
| RRIRCRPPRLPRPRPRPEPDPRP | 0.307 |
| RRIRHRPPRLPRPRPRPADHPRP | 0.134 |
| RRIRVRPPRLPRPRPRPRPIPRP | 0.611 |
| RRIRFRPPRLPRPRPRPGLLPRP | 0.032 |
| RRIRNRPPRLPRPRPRPGCEPRP | 0.212 |
| RRIRMRPPRLPRPRPRPALTPRP | 0.433 |
| RRIRPRPPRLPRPRPRPWCKPRP | -0.162 |
| RRIRSRPPRLPRPRPRPENDPRP | -0.0386 |
| RRIRVRPPRLPRPRPRPEMYPRP | -0.19 |
| RRIRMRPPRLPRPRPRPRTQPRP | 0.97 |
| RRIRMRPPRLPRPRPRPDWMPRP | -0.0455 |
| RRIRVRPPRLPRPRPRPPMFPRP | -0.161 |
| RRIRTRPPRLPRPRPRPADRPRP | -0.108 |
